In patent US20230382992A1 (Bristol-Myers Squibb, published 2023):

Target: CD64 (UniProt P12314 16-288, limits assumed)
Assay: assay not described

Sequence of CD64 (P12314 16-288 limits assumed): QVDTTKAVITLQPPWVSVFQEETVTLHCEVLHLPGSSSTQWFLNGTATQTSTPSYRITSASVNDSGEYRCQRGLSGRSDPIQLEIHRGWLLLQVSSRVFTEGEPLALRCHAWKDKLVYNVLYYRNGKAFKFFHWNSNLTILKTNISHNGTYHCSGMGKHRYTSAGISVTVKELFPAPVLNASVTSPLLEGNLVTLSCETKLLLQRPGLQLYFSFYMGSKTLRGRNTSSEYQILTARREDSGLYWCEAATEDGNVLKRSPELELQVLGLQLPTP

binding result: no binding
B1: TIM3.18.IgG1.3 (antibody)
heavy: QLQLQESGPGLVKPSETLSLTCTVSGGSISSRSYYWGWIRQPPGKGLEWIGSIYYSGFTYYQPSLKSRVTISVDTSKNQFSLKLSSVTAADTAVYYCATGGPYGDYAHWFEPWGQGTLVTVSSASTKGPSVFPLAPSSKSTSGGTAALGCLVKDYFPEPVTVSWNSGALTSGVHTFPAVLQSSGLYSLSSVVTVPSSSLGTQTYICNVNHKPSNTKVDKRVEPKSCDKTHTCPPCPAPEAEGAPSVFLFPPKPKDTLMISRTPEVTCVVVDVSHEDPEVKFNWYVDGVEVHNAKTKPREEQYNSTYRVVSVLTVLHQDWLNGKEYKCKVSNKALPAPIEKTISKAKGQPREPQVYTLPPSREEMTKNQVSLTCLVKGFYPSDIAVEWESNGQPENNYKTTPPVLDSDGSFFLYSKLTVDKSRWQQGNVFSCSVMHEALHNHYTQKSLSLSPGK
light: not shown
notes: Effectorless IgG1.3f (L234A, L235E, G237A); It was radioiodinated for the Scatchard assays; also called TIM3.18 (13A3) IgG1.3f (N60Q/D101E)
